From paper PMC8675521, “Improved methanol tolerance of Rhizomucor miehei lipase based on N‑glycosylation within the α-helix region and its application in biodiesel production” (Biotechnology for Biofuels, 2021) come the findings set out here.

Substrate in this data set: CCCCCCCCCCCCCCCC(=O)Oc1ccc([N+](=O)[O-])cc1
Kind of data set: purified protein. Type of data set: biochemical, Rhizomucor miehei. Conditions: 50 mM PBS pH 8.0, 40 °C, 5 min.

[1] abbreviates: propeptide N-glycosylation sites removed.
Where [2] appears, read: N93 [sic], made on N9A/N59A template, N-glycosylated.
[3] abbreviates: N260 [sic], made on N9A/N59A template, N-glycosylated.
[4] abbreviates: N115, made on N9A/N59A template, N-glycosylated.
[5] abbreviates: N218, made on N9A/N59A template, N-glycosylated.
Setting [6] is: printed N183, made on N9A/N59A template, N-glycosylated.

Substitutions are numbered along the chain they refer to. Numbers in names are those of the source.

B1: ProRML (Rhizomucor miehei lipase with propeptide) (Rhizomucor miehei) (protein)
chain: AVPIKRQSNSTVDSLPPLIPSRTSAPSSSPSTTDPEAPAMSRNGPLPSDVETKYGMALNATSYPDSVVQAMSIDGGIRAATSQEINELTYYTTLSANSYCRTVIPGATWDCIHCDATEDLKIIKTWSTLIYDTNAMVARGDSEKTIYIVFRGSSSIRNWIADLTFVPVSYPPVSGTKVHKGFLDSYGEVQNELVATVLDQFKQYPSYKVAVTGHSLGGATALLCALDLYQREEGLSSSNLFLYTQGQPRVGDPAFANYVVSTGIPYRRTVNERDIVPHLPPAAFGFLHAGEEYWITDNSPETVQVCTSDLETSDCSNSIVPFTSVLDHLSYFGINTGLCT
notes: propeptide plus mature peptide, plasmid pPIC9K (alpha-factor secretion), Pichia pastoris GS115, HisTrap purified; about 40 kDa unglycosylated, mutants about 55 kDa N-glycosylated
Regarding B1, the Km was determined as 1160 µM, the kcat amounted to 1.75 ± 0.0493 s⁻¹ and the kcat/Km amounted to 1510 ± 42.5 M⁻¹ s⁻¹.

B2: ProRML (Rhizomucor miehei lipase with propeptide) (Rhizomucor miehei; N32A/N82A) (protein)
chain: B1 chain with N9A, N59A
notes: as for B1
Regarding B2, under setting [1], the Km came to 350 µM, the kcat was determined as 0.844 ± 0.0385 s⁻¹ and the kcat/Km was determined as 2420 ± 111 M⁻¹ s⁻¹.

B3: ProRML (Rhizomucor miehei lipase with propeptide) (Rhizomucor miehei; N32A/N82A/T116N) (protein)
chain: B1 chain with N9A, N59A, T93N
notes: as for B1
For the protein B3, under setting [2], the Km stood at 4700 µM, the kcat was 63.6 ± 2.62 s⁻¹ and the kcat/Km was 13500 ± 558 M⁻¹ s⁻¹.

B4: ProRML (Rhizomucor miehei lipase with propeptide) (Rhizomucor miehei; N32A/N82A/V283N) (protein)
chain: B1 chain with N9A, N59A, V260N
notes: as for B1
With B4, under setting [3], the Km worked out at 1250 µM, the kcat was determined as 4.89 ± 0.149 s⁻¹ and the kcat/Km is 3930 ± 120 M⁻¹ s⁻¹.

B5: ProRML (Rhizomucor miehei lipase with propeptide) (Rhizomucor miehei; D138N/N32A/N82A) (protein)
chain: B1 chain with N9A, N59A, D115N
notes: as for B1
For B5, under setting [4], the Km amounted to 640 µM, the kcat was found to be 7.26 ± 0.277 s⁻¹ and the kcat/Km amounted to 11300 ± 432 M⁻¹ s⁻¹.

B6: ProRML (Rhizomucor miehei lipase with propeptide) (Rhizomucor miehei; G241N/N32A/N82A) (protein)
chain: B1 chain with N9A, N59A, G218N
notes: as for B1
As to B6, under setting [5], the Km was 13200 µM and the kcat/Km was determined as 64800 ± 1970 M⁻¹ s⁻¹.

B7: ProRML (Rhizomucor miehei lipase with propeptide) (Rhizomucor miehei; L206N/N32A/N82A) (protein)
chain: B1 chain with N9A, N59A, L183N
notes: as for B1
As for B7, under setting [6], the Km worked out at 360 µM, the kcat came out at 1.186 ± 0.00633 s⁻¹ and the kcat/Km was 3258 ± 17.5 M⁻¹ s⁻¹.

By Km is commonly meant the concentration of substrate that gives half-maximal velocity. In general, kcat refers to the number of substrate molecules converted per active site and unit of time at saturation. The term kcat/Km denotes the second-order rate constant that governs catalysis at low substrate concentration.
